Reference: patent publication US20080279865A1, “Therapy of Prostate Cancer With Ctla-4 Antibodies and Hormonal Therapy” (Pfizer, Inc., Pfizer Products, Inc., priority 2005, published 2008)

Columns and labels:
[1] = Single agent studies of ticilimumab in melanoma (diarrhea); assay type: in vivo, human
Description: In contrast, in the present study, 2 out of 3 patients treated with the combination of hormonal therapy and CTLA4 blockade had grade 3 diarrhea. […] Diarrhea is considered to be pharmacologically mediated in that it is likely related to the mechanism of action of ticilimumab. […] A possible correlation between tumor response in melanoma and putative “autoimmune breakthrough events” has been reported for single agent CTLA4 blockade in the absence of any other therapy (see Attia et al., J Clin Oncol. 23(25):6043-6053 (2005)).

prostate cancer = experiment: Neoadjuvant ticilimumab plus leuprolide and bicalutamide before prostatectomy in high risk prostate cancer; assay type: in vivo, human
Description: Patients with prostate cancer who are eligible for radical prostatectomy and who have an intermediate or high risk of recurrence according to current medical standards are candidates for antibody-hormonal combination neoadjuvant therapy. The target population for this study is defined using the risk of biochemical recurrence instead of the probability of pathologically confined cancer. This approach is supported by the observation that patients with disease confined to the prostate may have a biochemical recurrence despite “definitive” local treatment. Therefore, this patient definition is more comprehensive. Considering recent data showing that a time to PSA failure of less than 2 years predicts for distant failure, patients who are at high risk for early PSA failure are candidates for neoadjuvant (and adjuvant) antibody-hormonal combination therapy as disclosed herein.
Pre-operatively, approximately after the end of the last cycle of antibody-hormone combination therapy and prior to scheduled prostatectomy, the following evaluations are completed: any adverse events, ECOG PS, vital signs and weight, physical examination (including signs of autoimmunity), ECG, and DRE. Samples for hematology and chemistry panels, along with PT, APTT, CRP and PSA are obtained.
Post-operative assessments are performed approximately two weeks following surgery. The evaluation includes physical examination (including autoimmunity), vital signs, ECOG performance status, body weight, hematology, and chemistry panels, PT, APTT, TSH, T3, T4, amylase, lipase, CRP, urinalysis. Additional samples are obtained for autoantibody panel, PSA, testosterone, HAH titer and PK. All patients are assessed for pathological assessment of the surgical specimen and adverse events.
The patient is premedicated with antihistamine (H1) at least one half hour prior to infusion of anti-CTLA4, but premedication is not required. Patients were administered leuprolide (LUPRON) and bicalutamide (CASODEX) in combination with an anti-CTLA4 antibody (ticilimumab). More specifically, on day 1 (D1), the patient was administered a single IV infusion (100 mL/hr) of anti-CTLA4 antibody at a dose of 1 mg/kg, 3 mg/kg, or 6 mg/kg, in combination with a 7.5 mg IM injection of leuprolide (LUPRON DEPOT). A minimum of 3 patients were administered each antibody dose. The study was amended to reinitiate dose escalation at a lower dose level, i.e., 1 mg/kg. Three patients received that dose level, and are undergoing surgery (after 3 months of combination therapy). Dose escalation continued to 3 mg/kg. Dose escalation is ongoing at 6 mg/kg and 10 mg/kg.
Bicalutamide (CASODEX) was administered orally, in tablet form, at a dose of 50 mg, once per day for the first fourteen days commencing on day 1 (D1). Preferably, bicalutamide was taken at the same time each day on days D1-D14, and a patient medication diary was used to record any interruption of bicalutamide dosing.
Prophylactic anti-emetics and anti-diarrheals were given as appropriate. The treatment was repeated after 28 days with a […] of antibody and 7.5 mg IM injection of LUPRON DEPOT for a maximum of three cycles (D1, D28, and D56) preceding surgery.

For “ticilimumab: human IgG2 anti-CTLA4 antibody; heavy chain SEQ ID NO:26, light chain SEQ ID NO:32”, the patients with diarrhea ([1]; multiple doses of 6 mg/kg) was “none”, the “patients with diarrhea grade 3” value ([1]; single dose of 6 mg/kg) was 1 out of three and the “diarrhea in a patient” value (prostate cancer; 3 mg/kg ticilimumab and hormonal therapy) was “prolonged diarrhea”. For the same substance, the prostatectomy specimen findings (prostate cancer; 6 mg/kg, patient 1005-1004, after three months of antibody therapy and hormonal therapy (leuprolide and bicalutamide), FIG. 4) was “detectable tumor regression and signs of an inflammatory infiltrate around tumor cells”, the “patients who experienced diarrhea and did not complete the study” value (prostate cancer; cohort of three patients at 6 mg/kg with hormonal therapy) was “two” and the “severity (duration and magnitude) of the diarrhea versus any other study at any dose level” value (prostate cancer; combination of hormonal therapy and CTLA4 blockade) was “significantly higher”. For the same substance, the “patients with grade 3 diarrhea” value (prostate cancer; combination of hormonal therapy and CTLA4 blockade, cohort of three patients at 6 mg/kg) was 2 out of 3 and the “treatment effect in prostatectomy specimens” value (prostate cancer; several patients treated with 1 mg/kg and 6 mg/kg, with androgen blockade) was “regression of carcinoma and benign prostate glandular tissue, lymphocytic infiltrates (see FIG. 4), and signs of acute and chronic inflammation”.
